Values quoted from earlier work, collected in US20220133873A1, “CANCER THERAPY” (Madison Vaccines Inc., priority 2019, published 2022).

Columns and labels:
[1] = intravenously or subcutaneously, doses 50 to 500 μg/m2/day
[2] = test system: advanced (metastatic) melanoma; details: 173 patients, 2 mg/kg or 10 mg/kg at 3-week intervals

GM-CSF: Granulocyte-macrophage colony-stimulating factor, vaccine adjuvant
tolerability [1]: generally well tolerated

pembrolizumab
drug-related grade 3 or 4 adverse event reported in more than one patient [2]: Grade 3 fatigue | overall response rate ([2]; irrespective of dose): 26%
